Measured values taken from patent US20030092164A1.

Assays:
Ztnfr12 (human) = assay: I^125-labeled ZTNF4 binding to baby hamster kidney cells transfected with Ztnfr12; Scatchard analysis
TACI receptor = assay: I^125-labeled ZTNF4 binding to baby hamster kidney cells transfected with a TACI expression vector; Scatchard analysis

Substance: ZTNF4 (ligand)
- Kd (Ztnfr12 (human)): 1 nM
- Kd (TACI receptor): 1.25 nM
